Legend:
[1] = target: HLA-B*40:01; test: IEDB peptide-MHC binding, purified MHC/competitive/radioactivity; filed as Kd, often an IC50 or EC50 that approximates it; ≥ and ≤ were set here for values at or beyond the usual limits of such assays
[2] = target: HLA-B*18:01; test: as above
[3] = target: HLA-B*40:02; test: as above
[4] = target: HLA-B*44:03; test: as above
[5] = target: HLA-B*44:02; test: as above
[6] = target: HLA-B*45:01; test: as above
[7] = target: HLA-A*03:01; test: IEDB peptide-MHC binding, purified MHC/competitive/fluorescence; filed as Kd, often an IC50 or EC50 that approximates it; ≥ and ≤ were set here for values at or beyond the usual limits of such assays; settings: source organism: Escherichia coli O157:H7 str. Sakai
[8] = target: HLA-A*32:01; test: IEDB peptide-MHC binding, purified MHC/competitive/radioactivity; filed as Kd, often an IC50 or EC50 that approximates it; ≥ and ≤ were set here for values at or beyond the usual limits of such assays
[9] = target: HLA-A*02:06; test: as above
[10] = target: HLA-B*57:01; test: IEDB peptide-MHC binding, purified MHC/direct/fluorescence; filed as Kd, often an IC50 or EC50 that approximates it; ≥ and ≤ were set here for values at or beyond the usual limits of such assays
[11] = target: HLA-B*15:17; test: as above
[12] = target: HLA-B*58:01; test: as above
[13] = target: HLA-A*68:02; test: IEDB peptide-MHC binding, purified MHC/competitive/radioactivity; filed as Kd, often an IC50 or EC50 that approximates it; ≥ and ≤ were set here for values at or beyond the usual limits of such assays
[14] = target: HLA-A*02:01; test: as above
[15] = target: HLA-A*02:03; test: as above
[16] = target: HLA-A*02:17; test: as above
[17] = target: HLA-B*07:02; test: IEDB peptide-MHC binding, purified MHC/direct/fluorescence; filed as Kd, often an IC50 or EC50 that approximates it; ≥ and ≤ were set here for values at or beyond the usual limits of such assays; settings: source organism: Mycobacterium tuberculosis str. Haarlem
[18] = target: HLA-B*08:02; test: as above
[19] = target: HLA-A*69:01; test: as above; settings: source organism: Mycobacterium tuberculosis
[20] = target: HLA-B*08:01; test: as above
[21] = target: HLA-A*01:01; test: IEDB peptide-MHC binding, purified MHC/competitive/radioactivity; filed as Kd, often an IC50 or EC50 that approximates it; ≥ and ≤ were set here for values at or beyond the usual limits of such assays; settings: source organism: Dengue virus 1 Brazil/97-11/1997
[22] = target: HLA-A*02:01; test: IEDB peptide-MHC binding, purified MHC/competitive/fluorescence; filed as Kd, often an IC50 or EC50 that approximates it; ≥ and ≤ were set here for values at or beyond the usual limits of such assays; settings: source organism: Orthonairovirus haemorrhagiae
[23] = target: HLA-B*35:01; test: IEDB peptide-MHC binding, purified MHC/competitive/radioactivity; filed as Kd, often an IC50 or EC50 that approximates it; ≥ and ≤ were set here for values at or beyond the usual limits of such assays; settings: source organism: Dengue virus 3 Singapore/8120/1995
[24] = source organism: Mammarenavirus whitewaterense
[25] = source organism: Mammarenavirus machupoense
[26] = source organism: SARS coronavirus Tor2
[27] = source organism: Mammarenavirus juninense
[28] = source organism: Dengue virus 3 Martinique/1243/1999
[29] = source organism: dengue virus type 4
[30] = source organism: Mammarenavirus lassaense
[31] = source organism: Camelpox virus M-96
[32] = source organism: Dengue virus 1 Singapore/S275/1990
[33] = source organism: Giardia lamblia ATCC 50803
[34] = source organism: Mycobacterium tuberculosis str. Haarlem
[35] = source organism: Dengue virus 1 Brazil/97-11/1997
[36] = source organism: Orthonairovirus haemorrhagiae
[37] = source organism: Dengue virus 3 China/80-2/1980

AEQSRIFEEL
Kd [1, 24]: 10200 nM
Kd [2, 24]: ≥ 20800 nM
Kd [3, 24]: 16.8 nM
Kd [4, 24]: 430 nM
Kd [5, 24]: 57.4 nM
Kd [6, 24]: 206 nM

EEPAALLPL
Kd [1, 25]: 7110 nM
Kd [2, 25]: 5640 nM
Kd [3, 25]: 57.1 nM
Kd [4, 25]: ≥ 41200 nM
Kd [5, 25]: ≥ 39900 nM
Kd [6, 25]: ≥ 23400 nM

FSFGDYFKH
Kd [7]: ≥ 20000 nM

GETALALLL
Kd [1, 26]: 1.22 nM
Kd [2, 26]: ≥ 22700 nM
Kd [3, 26]: 7.78 nM
Kd [4, 26]: 13.2 nM
Kd [5, 26]: 31.4 nM
Kd [6, 26]: 448 nM

HDLPLLCTL
Kd [1, 27]: 16100 nM
Kd [2, 27]: 1710 nM
Kd [3, 27]: 8.52 nM
Kd [4, 27]: 19100 nM
Kd [5, 27]: 9820 nM
Kd [6, 27]: ≥ 74600 nM

KAYAQMWSL
Kd [8, 28]: 24.8 nM
Kd [9, 28]: 27.2 nM
Kd [10, 29]: 10.1 nM
Kd [11, 29]: 1.3 nM

KEAYCQEFLL
Kd [1, 30]: 10200 nM
Kd [2, 30]: ≥ 45900 nM
Kd [3, 30]: 33.7 nM
Kd [4, 30]: 5010 nM
Kd [5, 30]: 1260 nM
Kd [6, 30]: 6680 nM

KLIEGTNIW
Kd [10, 31]: 70.5 nM
Kd [12, 31]: 7.7 nM
Kd [11, 31]: 67.9 nM

KTMAMVLSIV
Kd [13, 32]: 52.5 nM
Kd [14, 32]: 26.4 nM
Kd [15, 32]: 1.18 nM
Kd [16, 32]: 2860 nM
Kd [9, 32]: 1.96 nM

LASSSYEQF
Kd [10, 33]: 188 nM
Kd [12, 33]: 36.5 nM
Kd [11, 33]: 21.8 nM

LPAQLTATA
Kd [17]: 441 nM
Kd [18, 34]: ≥ 20000 nM
Kd [19]: 184 nM
Kd [20, 34]: ≥ 20000 nM

LTAAVLMLV
Kd [13, 35]: 11.3 nM
Kd [14, 32]: 1.14 nM
Kd [15, 35]: 11.8 nM
Kd [21]: 17700 nM
Kd [16, 32]: 561 nM
Kd [9, 35]: 10.6 nM

MIRRRNQIL
Kd [22]: ≥ 20000 nM
Kd [18, 36]: 843 nM
Kd [20, 36]: 3 nM

MLWMADVPL
Kd [14, 37]: 1.16 nM
Kd ([8]; source organism: Dengue virus 3 Singapore/8120/1995): 29.1 nM
Kd [16, 37]: 2.72 nM
Kd [23]: 658 nM

PDVGVLFGL
Kd [1, 25]: ≥ 76100 nM
Kd [2, 25]: ≥ 44100 nM
Kd [3, 25]: ≥ 22800 nM
Kd [4, 25]: ≥ 78100 nM
Kd [5, 25]: ≥ 77900 nM
Kd [6, 25]: ≥ 25100 nM
